From patent US20170016905A1 (VAR2 PHARMACEUTICALS, published 2017)

B1: DBL1-ID2a (FCR3, Baculo) (other)
chain: HSDSGKYDPCEKKLPPYDDNDQWKCQQNSSDGSGKPENICVPPRRERLCTYNLENLKFDKIRDNNAFLADVLLTARNEGEKIVQNHPDTNSSNVCNALERSFADLADIIRGTDQWKGTNSNLEKNLKQMFAKIRENDKVLQDKYPKDQKYTKLREAWWNANRQKVWEVITCGARSNDLLIKRGWRTSGKSDRKKNFELCRKCGHYEKEVPTKLDYVPQFLRWLTEWIEDFYREKQNLIDDMERHREECTREDHKSKEGTSYCSTCKDKCKKYCECVKKWKTEWENQENKYKDLYEQNKNKTSQKNTSRYDDYVKDFFEKLEANYSSLENYIKGDPYFAEYATKLSFILNPSDANNPSGETANHNDEACNCNESGISSVGQAQTSGPSSNKTCITHSSIKTNKKKECKDVKLGVRENDKDLKICVIEDTSLSGVDNCCCQDLLGILQENCSDNKRGSSSNDSCDNKNQDECQKKLEKVFASLTNGYKCDKCKSGTSRSKKKWIWKKSSGNEEGLQEEYANTIGLPPRTQSLYLGNLPKLENVCEDVKDINFDTKEKFLAGCLIVSFHEGKNLKKRYPQNKNSGNKENLCKALEYSFADYGDLIKGTSIWDNEYTKDLELNLQNNFGKLFGKYIKKNNTAEQDTSYSSLDELRESWWNTNKKYIWTAMKHGAEMNITTCNADGSVTGSGSSCDDIPTIDLIPQYLRFLQEWVENFCEQRQAKVKDVITNCKSCKESGNKCKTECKTKCKDECEKYKKFIEACGTAGGGIGTAGSPWSKRWDQIYKRYSKHIEDAKRNRKAGTKNCGTSSTTNAAASTDENKCVQSDIDSFFKHLIDIGLTTPSSYLSNVLDDNICGADKAPWTTYTTYTTTEKCNKERDKSKSQSSDTLVVVNVPSPLGNTPYRYKYACQCKIPTNEETCDDRKEYMNQWSCGSARTMKRGYKNDNYELCKYNGVDVKPTTVRSNSSKLD
notes: also called DBL1X-ID2a; wild-type protein; not shown: V5 and His tag at the C-terminal (modified pAcGP67-A)
B2: DBL1-ID2a (FCR3, E. coli) (other)
chain: HSDSGKYDPCEKKLPPYDDNDQWKCQQNSSDGSGKPENICVPPRRERLCTYNLENLKFDKIRDNNAFLADVLLTARNEGEKIVQNHPDTNSSNVCNALERSFADLADIIRGTDQWKGTNSNLEKNLKQMFAKIRENDKVLQDKYPKDQKYTKLREAWWNANRQKVWEVITCGARSNDLLIKRGWRTSGKSDRKKNFELCRKCGHYEKEVPTKLDYVPQFLRWLTEWIEDFYREKQNLIDDMERHREECTREDHKSKEGTSYCSTCKDKCKKYCECVKKWKTEWENQENKYKDLYEQNKNKTSQKNTSRYDDYVKDFFEKLEANYSSLENYIKGDPYFAEYATKLSFILNPSDANNPSGETANHNDEACNCNESGISSVGQAQTSGPSSNKTCITHSSIKTNKKKECKDVKLGVRENDKDLKICVIEDTSLSGVDNCCCQDLLGILQENCSDNKRGSSSNDSCDNKNQDECQKKLEKVFASLTNGYKCDKCKSGTSRSKKKWIWKKSSGNEEGLQEEYANTIGLPPRTQSLYLGNLPKLENVCEDVKDINFDTKEKFLAGCLIVSFHEGKNLKKRYPQNKNSGNKENLCKALEYSFADYGDLIKGTSIWDNEYTKDLELNLQNNFGKLFGKYIKKNNTAEQDTSYSSLDELRESWWNTNKKYIWTAMKHGAEMNITTCNADGSVTGSGSSCDDIPTIDLIPQYLRFLQEWVENFCEQRQAKVKDVITNCKSCKESGNKCKTECKTKCKDECEKYKKFIEACGTAGGGIGTAGSPWSKRWDQIYKRYSKHIEDAKRNRKAGTKNCGTSSTTNAAASTDENKCVQSDIDSFFKHLIDIGLTTPSSYLSNVLDDNICGADKAPWTTYTTYTTTEKCNKERDKSKSQSSDTLVVVNVPSPLGNTPYRYKYACQCKIPTNEETCDDRKEYMNQWSCGSARTMKRGYKNDNYELCKYNGVDVKPTTVRSNSSKLD
notes: Made in E. coli
B3: DBL1-ID2a (3D7, Baculo) (other)
chain: HSDSGTNDPCDRIPPPYGDNDQWKCAIILSKVSEKPENVFVPPRRQRMCINNLEKLNVDKIRDKHAFLADVLLTARNEGERIVQNHPDTNSSNVCNALERSFADIADIIRGTDLWKGTNSNLEQNLKQMFAKIRENDKVLQDKYPKDQNYRKLREDWWNANRQKVWEVITCGARSNDLLIKRGWRTSGKSNGDNKLELCRKCGHYEEKVPTKLDYVPQFLRWLTEWIEDFYREKQNLIDDMERHREECTSEDHKSKEGTSYCSTCKDKCKKYCECVKKWKSEWENQKNKYTELYQQNKNETSQKNTSRYDDYVKDFFKKLEANYSSLENYIKGDPYFAEYATKLSFILNSSDANNPSEKIQKNNDEVCNCNESGIASVEQEQISDPSSNKTCITHSSIKANKKKVCKHVKLGVRENDKDLRVCVIEHTSLSGVENCCCQDFLRILQENCSDNKSGSSSNGSCNNKNQEACEKNLEKVLASLTNCYKCDKCKSEQSKKNNKNWIWKKSSGKEGGLQKEYANTIGLPPRTQSLCLVVCLDEKGKKTQELKNIRTNSELLKEWIIAAFHEGKNLKPSHEKKNDDNGKKLCKALEYSFADYGDLIKGTSIWDNEYTKDLELNLQKIFGKLFRKYIKKNNTAEQDTSYSSLDELRESWWNTNKKYIWLAMKHGAGMNSTTCCGDGSVTGSGSSCDDIPTIDLIPQYLRFLQEWVEHFCKQRQEKVKPVIENCKSCKESGGTCNGECKTECKNKCEVYKKFIEDCKGGDGTAGSSWVKRWDQIYKRYSKYIEDAKRNRKAGTKNCGPSSTTNAAENKCVQSDIDSFFKHLIDIGLTTPSSYLSIVLDDNICGADKAPWTTYTTYTTTEKCNKETDKSKLQQCNTAVVVNVPSPLGNTPHGYKYACQCKIPTNEETCDDRKEYMNQWSCGSARTMKRGYKNDNYELCKYNGVDVKPTTVRSNSSKLD
notes: also called DBL1X-ID2a; not shown: V5 and His tag at the C-terminal (modified pAcGP67-A)
B4: ID1-ID2a (FCR3, Baculo) (other)
chain: NYIKGDPYFAEYATKLSFILNPSDANNPSGETANHNDEACNCNESGISSVGQAQTSGPSSNKTCITHSSIKTNKKKECKDVKLGVRENDKDLKICVIEDTSLSGVDNCCCQDLLGILQENCSDNKRGSSSNDSCDNKNQDECQKKLEKVFASLTNGYKCDKCKSGTSRSKKKWIWKKSSGNEEGLQEEYANTIGLPPRTQSLYLGNLPKLENVCEDVKDINFDTKEKFLAGCLIVSFHEGKNLKKRYPQNKNSGNKENLCKALEYSFADYGDLIKGTSIWDNEYTKDLELNLQNNFGKLFGKYIKKNNTAEQDTSYSSLDELRESWWNTNKKYIWTAMKHGAEMNITTCNADGSVTGSGSSCDDIPTIDLIPQYLRFLQEWVENFCEQRQAKVKDVITNCKSCKESGNKCKTECKTKCKDECEKYKKFIEACGTAGGGIGTAGSPWSKRWDQIYKRYSKHIEDAKRNRKAGTKNCGTSSTTNAAASTDENKCVQSDIDSFFKHLIDIGLTTPSSYLSNVLDDNICGADKAPWTTYTTYTTTEKCNKERDKSKSQSSDTLVVVNVPSPLGNTPYRYKYACQCKIPTNEETCDDRKEYMNQWSCGSARTMKRGYKNDNYELCKYNGVDVKPTTVRSNSSKLD
notes: The primers (NYIKGD ... NSSKLD) match its two ends; not shown: V5 and His tag at the C-terminal (modified pAcGP67-A)
B5: ID1-ID2a (FCR3, E. coli) (other)
chain: NYIKGDPYFAEYATKLSFILNPSDANNPSGETANHNDEACNCNESGISSVGQAQTSGPSSNKTCITHSSIKTNKKKECKDVKLGVRENDKDLKICVIEDTSLSGVDNCCCQDLLGILQENCSDNKRGSSSNDSCDNKNQDECQKKLEKVFASLTNGYKCDKCKSGTSRSKKKWIWKKSSGNEEGLQEEYANTIGLPPRTQSLYLGNLPKLENVCEDVKDINFDTKEKFLAGCLIVSFHEGKNLKKRYPQNKNSGNKENLCKALEYSFADYGDLIKGTSIWDNEYTKDLELNLQNNFGKLFGKYIKKNNTAEQDTSYSSLDELRESWWNTNKKYIWTAMKHGAEMNITTCNADGSVTGSGSSCDDIPTIDLIPQYLRFLQEWVENFCEQRQAKVKDVITNCKSCKESGNKCKTECKTKCKDECEKYKKFIEACGTAGGGIGTAGSPWSKRWDQIYKRYSKHIEDAKRNRKAGTKNCGTSSTTNAAASTDENKCVQSDIDSFFKHLIDIGLTTPSSYLSNVLDDNICGADKAPWTTYTTYTTTEKCNKERDKSKSQSSDTLVVVNVPSPLGNTPYRYKYACQCKIPTNEETCDDRKEYMNQWSCGSARTMKRGYKNDNYELCKYNGVDVKPTTVRSNSSKLD
notes: Made in E. coli
B6: ID1-ID2a (3D7, Baculo) (other)
chain: LSFILNSSDANNPSEKIQKNNDEVCNCNESGIASVEQEQISDPSSNKTCITHSSIKANKKKVCKHVKLGVRENDKDLRVCVIEHTSLSGVENCCCQDFLRILQENCSDNKSGSSSNGSCNNKNQEACEKNLEKVLASLTNCYKCDKCKSEQSKKNNKNWIWKKSSGKEGGLQKEYANTIGLPPRTQSLCLVVCLDEKGKKTQELKNIRTNSELLKEWIIAAFHEGKNLKPSHEKKNDDNGKKLCKALEYSFADYGDLIKGTSIWDNEYTKDLELNLQKIFGKLFRKYIKKNNTAEQDTSYSSLDELRESWWNTNKKYIWLAMKHGAGMNSTTCCGDGSVTGSGSSCDDIPTIDLIPQYLRFLQEWVEHFCKQRQEKVKPVIENCKSCKESGGTCNGECKTECKNKCEVYKKFIEDCKGGDGTAGSSWVKRWDQIYKRYSKYIEDAKRNRKAGTKNCGPSSTTNAAENKCVQSDIDSFFKHLIDIGLTTPSSYLSIVLDDNICGADKAPWTTYTTYTTTEKCNKETDKSKLQQCNTAVVVNVPSPLGNTPHGYKYACQCKIPTNEETCDDRKEYMNQWSCGSARTMKRGYKNDNYELCKYNGVDVKPTTVRSNSSKLD
notes: not shown: V5 and His tag at the C-terminal (modified pAcGP67-A)
B7: DBL1X-DBL2Xb (FCR3, E. coli, as the column stands) (other)
chain: HSDSGKYDPCEKKLPPYDDNDQWKCQQNSSDGSGKPENICVPPRRERLCTYNLENLKFDKIRDNNAFLADVLLTARNEGEKIVQNHPDTNSSNVCNALERSFADLADIIRGTDQWKGTNSNLEKNLKQMFAKIRENDKVLQDKYPKDQKYTKLREAWWNANRQKVWEVITCGARSNDLLIKRGWRTSGKSDRKKNFELCRKCGHYEKEVPTKLDYVPQFLRWLTEWIEDFYREKQNLIDDMERHREECTREDHKSKEGTSYCSTCKDKCKKYCECVKKWKTEWENQENKYKDLYEQNKNKTSQKNTSRYDDYVKDFFEKLEANYSSLENYIKGDPYFAEYATKLSFILNPSDANNPSGETANHNDEACNCNESGISSVGQAQTSGPSSNKTCITHSSIKTNKKKECKDVKLGVRENDKDLKICVIEDTSLSGVDNCCCQDLLGILQENCSDNKRGSSSNDSCDNKNQDECQKKLEKVFASLTNGYKCDKCKSGTSRSKKKWIWKKSSGNEEGLQEEYANTIGLPPRTQSLYLGNLPKLENVCEDVKDINFDTKEKFLAGCLIVSFHEGKNLKKRYPQNKNSGNKENLCKALEYSFADYGDLIKGTSIWDNEYTKDLELNLQNNFGKLFGKYIKKNNTAEQDTSYSSLDELRESWWNTNKKYIWTAMKHGAEMNITTCNADGSVTGSGSSCDDIPTIDLIPQYLRFLQEWVENFCEQRQAKVKDVITNCKSCKESGNKCKTECKTKCKDECEKYKKFIEACGTAGGGIGTAGSPWSKRWDQIYKRYSKHIEDAKRNRKAGTKNCGTSSTTNAAASTDENKCVQSDIDSFFKHLIDIGLTTPSSYLSNVLDDNICGADKAPWTTYTTYTTTEKCNKERDKSKSQSSDTLVVVNVPSPLGNTPYRYKY
notes: The value stands in column 4 (E. coli, under FCR3); The column may be shifted, in which case the protein could be the 3D7 baculovirus one; Range derived by me from the FCR3 primers (HSDSGK ... PYRYKY)

The binders below were run against T1, CSPG (bovine) (D8428, Sigma) (bovine, UniProt P21793 31-360, carries chondroitin sulfate A (CSA) glycosaminoglycan chain(s); the filing attributes the binding of VAR2CSA to this glycan) (assay: quartz crystal microbalance (Attana A100), CSPG coated, 1:1 fit).
T1 construct: also called chondroitin sulfate proteoglycan; CSA proteoglycan
T1 sequence (P21793 31-360): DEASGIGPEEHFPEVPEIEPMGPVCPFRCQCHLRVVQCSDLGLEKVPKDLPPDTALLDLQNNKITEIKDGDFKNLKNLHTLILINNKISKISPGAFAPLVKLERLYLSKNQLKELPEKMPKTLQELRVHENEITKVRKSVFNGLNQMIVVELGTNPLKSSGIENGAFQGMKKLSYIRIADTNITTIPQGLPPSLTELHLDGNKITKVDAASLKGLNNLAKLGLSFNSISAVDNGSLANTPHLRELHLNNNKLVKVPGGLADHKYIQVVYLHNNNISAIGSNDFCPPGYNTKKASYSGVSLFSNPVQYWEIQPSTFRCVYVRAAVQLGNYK
For B1, the Kd was 8 nM.
B2 gave a Kd of 3.5 nM.
With B3 the Kd was 29.5 nM.
Binder B4 has a Kd of 7.6 nM.
B5 gave a Kd of 18.3 nM.
B6 showed a Kd of 5.7 nM.
Work on B7 yielded a Kd of 14.6 nM.
